# Reference: patent US20130303449A1 (University of California, published 2013)
# Positions of bridges follow the written chain, without caps; N, C: chain ends. No end group written: not given here.
# B1: cyclized BMP Binding Peptide (BBP), bovine (peptide)
# peptide: CRSTVRMSAEQVQNVWVRC
# modifications: disulfide 1-19 (inferred)
# notes: Synthetic 19 amino acid cyclic peptide, 2.1 kD; Reduction with β-mercaptoethanol decyclizes it, which implies a disulfide; also called cyclized BBP
# How the values were obtained:
# recombinant human BMP-2 [1] = molecular target: T1, recombinant human BMP-2 (human, UniProt P12643 283-396); assay: cell-based or functional assay
# recombinant human BMP-2 [2] = molecular target: T1, recombinant human BMP-2; assay: SPR (Biacore X), rhBMP-2 on CM-5 chip, peptide at 1×10^-5 to 1×10^-4 M in solution
# Method: Buffers and chips for the procedure were obtained from Biacore. […] This material was then attached to a CM-5 sensor chip using reagents and procedures supplied by the manufacturer. Running buffer was 10 mM HEPES, pH 7.4, 150 mM NaCl, 3 mM EDTA, 0.005% Surfactant P20. The peptide was dissolved in running buffer at concentrations ranging from 1×10⁻⁵ to 1×10⁻⁴ M. Flow rates from 5 to 50 μl/min and injection volumes of 20 to 100 μl were employed. The regeneration solution was […] glycine-HCl, pH 2.0.
# T1 sequence (P12643 283-396 limits assumed): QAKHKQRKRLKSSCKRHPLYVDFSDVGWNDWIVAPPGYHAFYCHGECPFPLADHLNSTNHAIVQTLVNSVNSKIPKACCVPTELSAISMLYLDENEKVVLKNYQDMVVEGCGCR
binder,measurement,setting,value
B1,"retention of labeled rhBMP-2 on collagen sponges implanted in rodent muscle pouches (1, 3 and 7 days)",recombinant human BMP-2 [1],~2 fold
same,Kd,recombinant human BMP-2 [2],30 µM
